Laboratory results: patent US20020151682A1 (UCB, published 2002)

Biological target: T1, human tumour necrosis factor alpha (TNFα) (human, UniProt P01375 77-233)
T1 construct: also called human TNF; recombinant human TNFα
Assay: affinity; method not named at the sentence (BiaCore with captured hTNF40 and human TNF in flow is described at paragraph 169)
Text: Following the injection of ligand, buffer was passed over the surface so that the dissociation could be measured.

T1 sequence (P01375 77-233 limits assumed): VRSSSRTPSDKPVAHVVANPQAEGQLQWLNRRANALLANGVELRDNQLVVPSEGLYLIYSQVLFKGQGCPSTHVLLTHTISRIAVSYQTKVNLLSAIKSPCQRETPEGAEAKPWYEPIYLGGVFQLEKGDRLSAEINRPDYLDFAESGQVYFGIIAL

B1: mouse monoclonal antibody hTNF40 (antibody, IgG2a, V domains shown)
VH: QIQLVQSGPELKKPGETVKISCKASGYVFTDYGMNWVKQAPGKAFKWMGWINTYIGEPIYVDDFKGRFAFSLETSASTAFLQINNLKNEDTATYFCARGYRSYAMDYWGQGTSVTVSS
VL: DIVMTQSQKFMSTSVGDRVSVTCKASQNVGTNVAWYQQKPGQSPKALIYSASFLYSGVPYRFTGSGSGTDFTLTISTVQSEDLAEYFCQQYNIYPLTFGAGTKLELKR
notes: The light chain constant region is kappa and the heavy chain constant region is IgG2a (mouse); also called murine hTNF40; the donor antibody
Kd: ~0.085 nM
